Measured values taken from article PMC3246455, “Degradation of Pheromone and Plant Volatile Components by a Same Odorant-Degrading Enzyme in the Cotton Leafworm, Spodoptera littoralis” (PLoS ONE, 2011).

Key:
Type in all cases: biochemical, Spodoptera littoralis
[1] = substrate: CC/C=C/C=C\CCCCCCCCOC(C)=O; test: GC of the released alcohol, nonlinear fit; conditions: 5 min incubation, one-site fit, buffer and temperature not restated for kinetics (1 h assay: 20 mM Tris pH 7.4, 28°C)
[2] = substrate: C/C=C/C/C=C\CCCCCCCCOC(C)=O; test: GC of the released alcohol, nonlinear fit; conditions: 5 min incubation, one-site fit, buffer and temperature not restated for kinetics (1 h assay: 20 mM Tris pH 7.4, 28°C)
[3] = substrate: CC/C=C\CCOC(C)=O; test: GC of the released alcohol, as in an earlier paper; conditions: incubation and analyses as in ref 12; one-site fit

B1: SlCXE7 (Spodoptera littoralis) (protein)
chain: DDEWREVKTAQGPVRGRKHPTEDIYTFYNIPYATAPVGVDRFKAPLPPPVWLQPYDAVEKPVVCPQPVFPFPELQLNKLVKQENCLIANVFVPNTNKKNLSVVVYVHGGAFIMGWGDMFRATQLMNKKDIIVVTFNYRLGVHGFLCLGTEDAPGNAGMKDQVALLRWVQKNIGSFNGNPDDVTIIGFSAGSASVDLLMLSKSAEGLFHRVVPESGGNLAAFAIQRDPVEIAKTYARQLNFTNVDDIYALGEFYKTAPLELLTSDPFFDRTDSTFLFSPCVERNMGQETFLTESPLTILKNGNYKKLPVLYGFAEMEGLLRVDFFPFWKQKMSDKFSDFLPADLTFKYEEEREEVANKVKRFYFGDEPVSEDNILQYVNFFSDVLFMHPMLWATKLHVEAGNNQIYLYELSFVAEEVPEVPHTNIKGVTQCGQSLAVLDGKNLTHKSHSEESLATPEYQKMKKTMREIWYNFIKKGKPVPEGSTRPAWPFAGADRSPHMSLGQKIEPRGVLLEKRTVLWDDINQRYFREPVPPPTPPPKSHAEK
notes: complete ORF amplified from male antennal cDNA, C-terminal V5/6His tag (tag kept), secreted from baculovirus-infected Sf21 cells, Ni-NTA purified from supernatant
Km [1]: 56.6 ± 18.5 µM | kcat [1]: ~0.4 s⁻¹ | Km [2]: 42.6 ± 13.3 µM | kcat [2]: ~0.4 s⁻¹ | Km [3]: 1600 ± 700 µM | kcat [3]: 36 s⁻¹
